Results as given in paper PMC7872222 (Chembiochem : a European journal of chemical biology, 2020).
Ends that are not written are not given here.

Columns and labels:
GABARAP = GABARAP (human, UniProt O95166 1-117); experiment: BLI
[1] = target: T1, microtubule-associated protein 1A/1B light chain 3B protein (human, UniProt Q9GZQ8 1-120); experiment: fluorescence polarisation
[2] = target: T1, microtubule-associated protein 1A/1B …; experiment: BLI

Sequence of GABARAP (O95166 whole entry): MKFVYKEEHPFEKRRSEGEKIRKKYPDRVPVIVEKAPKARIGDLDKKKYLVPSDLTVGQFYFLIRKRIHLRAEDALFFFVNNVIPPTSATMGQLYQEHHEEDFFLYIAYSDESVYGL

B1: biotinylated K1 peptide (peptide)
peptide: DATYTWEHLAWP
HELM: PEPTIDE1{[O=C1N[C@H]2[C@H](CS[C@H]2CCCCC(=O)[*:2])N1].[bAla].[bAla].D.A.T.Y.T.W.E.H.L.A.W.P.[am]}$$$$V2.0
SMILES: CC(C)C[C@H](NC(=O)[C@H](Cc1c[nH]cn1)NC(=O)[C@H](CCC(=O)O)NC(=O)[C@H](Cc1c[nH]c2ccccc12)NC(=O)[C@@H](NC(=O)[C@H](Cc1ccc(O)cc1)NC(=O)[C@@H](NC(=O)[C@H](C)NC(=O)[C@H](CC(=O)O)NC(=O)CCNC(=O)CCNC(=O)CCCC[C@@H]1SC[C@@H]2NC(=O)N[C@@H]21)[C@@H](C)O)[C@@H](C)O)C(=O)N[C@@H](C)C(=O)N[C@@H](Cc1c[nH]c2ccccc12)C(=O)N1CCC[C@H]1C(N)=O
B1 gave a Kd (GABARAP) of 390 nM.

Work on Fluorescein-DATYTWEHLAWP [fluorescein-labeled K1 peptide] yielded a Kd [1] of 1200 nM.

B2: FYCO1 peptide C1289S (peptide)
peptide: DDAVFDIITDEELSQIQEW
HELM: PEPTIDE1{[O=C1N[C@H]2[C@H](CS[C@H]2CCCCC(=O)[*:2])N1].[bAla].[bAla].D.D.A.V.F.D.I.I.T.D.E.E.L.S.Q.I.Q.E.W.[am]}$$$$V2.0
SMILES: CC[C@H](C)[C@H](NC(=O)[C@H](CCC(N)=O)NC(=O)[C@H](CO)NC(=O)[C@H](CC(C)C)NC(=O)[C@H](CCC(=O)O)NC(=O)[C@H](CCC(=O)O)NC(=O)[C@H](CC(=O)O)NC(=O)[C@@H](NC(=O)[C@@H](NC(=O)[C@@H](NC(=O)[C@H](CC(=O)O)NC(=O)[C@H](Cc1ccccc1)NC(=O)[C@@H](NC(=O)[C@H](C)NC(=O)[C@H](CC(=O)O)NC(=O)[C@H](CC(=O)O)NC(=O)CCNC(=O)CCNC(=O)CCCC[C@@H]1SC[C@@H]2NC(=O)N[C@@H]21)C(C)C)[C@@H](C)CC)[C@@H](C)CC)[C@@H](C)O)C(=O)N[C@@H](CCC(N)=O)C(=O)N[C@@H](CCC(=O)O)C(=O)N[C@@H](Cc1c[nH]c2ccccc12)C(N)=O
With B2 the Kd [2] was 330 nM.
